The source of these data is patent US20050118611, “Thioaptamers enable discovery of physiological pathways and new therapeutic strategies” (Board Of Regents, The University of Texas System, published 2005).

This data set addresses NF-κB p65 (RelA) homodimer (UniProt Q04206 Q04206:1-551). Nature of the data set: competition; inhibition/binding similar to unsubstituted aptamer; 32P IgκB competition. The conditions noted are these: protein: NAME; chain copies: 2 (stated). As to the method: As the substitutions of dithiophosphate were increased, binding by the [S₂]-ODN oligonucleotide increased dramatically. For example, in a standard competitive binding assay, ³²P IgκB promoter element ODN is incubated with recombinant p65 and varying amounts of XBY aptamer competitor. The relative binding ability of the unlabeled ODNs is determined by the concentration needed to effectively compete with the standard labeled ODN. XBY1 through 6 correspond to CK-14 aptamers with 1 through 6 dithiophosphate substitutions, respectively. The present inventors, according to an embodiment of this invention, developed an oligonucleotide containing six dithioate linkages on the two strands, termed XBY-6. Unlike the fully substituted [S]-ODN CK-14, the XBY-6 hybrid backbone [S₂]-ODN aptamers bound more tightly to p50/p50 (5-fold) than to the p65 homodimer.

Chain of NF-κB p65 (RelA) homodimer (Q04206 whole entry, one chain of several): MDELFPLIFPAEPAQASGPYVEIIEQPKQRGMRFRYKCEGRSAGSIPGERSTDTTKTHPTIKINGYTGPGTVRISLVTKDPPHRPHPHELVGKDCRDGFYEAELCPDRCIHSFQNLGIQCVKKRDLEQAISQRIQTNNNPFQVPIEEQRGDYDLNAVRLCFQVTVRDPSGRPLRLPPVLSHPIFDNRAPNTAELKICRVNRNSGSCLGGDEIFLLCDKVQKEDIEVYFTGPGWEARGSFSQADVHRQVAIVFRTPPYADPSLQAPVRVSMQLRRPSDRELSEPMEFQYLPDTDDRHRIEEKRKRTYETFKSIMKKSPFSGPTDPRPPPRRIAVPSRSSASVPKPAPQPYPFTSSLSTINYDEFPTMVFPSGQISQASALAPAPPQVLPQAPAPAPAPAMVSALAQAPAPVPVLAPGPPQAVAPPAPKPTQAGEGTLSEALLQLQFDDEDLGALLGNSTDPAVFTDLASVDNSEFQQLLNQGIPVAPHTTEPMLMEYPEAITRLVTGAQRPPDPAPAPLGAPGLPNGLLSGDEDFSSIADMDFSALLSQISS

B1: CK-14 with one or two dithioate linkages (XBY1, XBY2) (dsDNA)
DNA 1: CCAGGAGATTCCAC
DNA 2: GTGGAATCTCCTGG
modifications: 1 or 2 phosphorodithioates, positions not given
As for B1, the binding signal was roughly 1 fold vs unsubstituted.
